Assays:
[1] = target: wild-type human APJ (membrane preparation) (human, UniProt P35414); experiment: cell-based or functional assay
[2] = target: APJ463 chimeric receptor reconstituted in nanodiscs (human, UniProt P35414, C325L | C326M); experiment: SPR

B1: single-domain antibody (sdAb) antagonist JN241 (VHH)
VHH: QVQLVESGGGSVQSGGSLTLSCAASGSTYSSHCMGWFRQAPGKEREGVALMTRSRGTSYADSVKGRFTISQDNTKNILYLQMNSLKPEDTAMYYCAAVPRAGIESGAYCKWNMKDSGSWGQGTLVTVSS
IC50 of antagonism of the action of Apelin 13 on human APJ, cAMP assay [1]: 5.9 nM | Kd [2]: 0.083 nM

From paper PMC6962038 (Science Advances, 2020)
